Data as given in patent publication US20080311122A1 (AstraZeneca / MedImmune, published 2008).
No end group written: not given here.

T1: HMG1 B Box peptide amino acids 91-169
T1 construct: also called HMG1 peptide 91-169
T1 peptide: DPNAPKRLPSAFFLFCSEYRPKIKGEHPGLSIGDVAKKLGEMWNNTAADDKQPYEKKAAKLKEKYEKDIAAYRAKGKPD

T2: recombinant HMG1 purified from E. coli as a calmodulin binding protein (CBP) fusion protein (human, UniProt A9RA84 1-215 (Papio anubis entry))
T2 construct: also called rHMG1; rHMGB1
T2 sequence: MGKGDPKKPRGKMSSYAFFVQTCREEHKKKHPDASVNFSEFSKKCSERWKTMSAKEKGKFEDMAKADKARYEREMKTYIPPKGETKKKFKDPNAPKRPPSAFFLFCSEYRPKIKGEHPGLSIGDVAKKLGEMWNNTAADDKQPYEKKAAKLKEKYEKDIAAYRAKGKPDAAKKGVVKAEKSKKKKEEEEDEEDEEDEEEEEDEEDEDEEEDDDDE

T3: HMGB1 peptide 166-183 (UniProt P09429 166-183, also: biotinylated, site not given here)
T3 peptide (looked up): GKPDAAKKGVVKAEKSKK

T4: HMGB1 in joint lysates of adjuvant induced arthritis (AIA) rats (rat, UniProt P63159 2-215)
T4 construct: also called HMGB1 from arthritis joints; AA joint lysates
T4 sequence (looked up): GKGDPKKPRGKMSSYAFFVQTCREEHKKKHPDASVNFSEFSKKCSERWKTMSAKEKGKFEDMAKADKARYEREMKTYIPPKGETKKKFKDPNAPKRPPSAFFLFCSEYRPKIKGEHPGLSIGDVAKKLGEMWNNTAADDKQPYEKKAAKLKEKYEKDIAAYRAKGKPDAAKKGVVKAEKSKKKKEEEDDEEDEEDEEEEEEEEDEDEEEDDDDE

B1: anti-HMG1 antibody S16 (antibody, V domains shown)
VH: EVQLLESGGGLVQPGGSLRLSCAASGFTFSWYSMLWVRQAPGKGLEWVSYISPSGGFTNYADSVKGRFTISRDNSKNTLYLQMNSLRAEDTAVYYCARWDYNSGWYYDHWGQGTLVTVSS
VL: DIQMTQSPDTLSLSPGERATLSCRASQSVNSRNLAWYQQKPGQAPRLLIYGASTRATGIPDRFSGSVSGTEFTLTISSLQPDDFATYYCQQYNSYFTFGQGTKLEIK
notes: also called ATCC PTA-6259
B2: anti-HMG1 antibody S6 (antibody, V domains shown)
VH: EVQLLESGGGLVQPGGSLRLSCAASGFTFSWYDMSWVRQAPGKGLEWVSRISPSGGYTMYADSVKGRFTISRDNSKNTLYLQMNSLRAEDTAVYYCARLEVGATSGGTAFDIWGQGTMVTVSS
VL: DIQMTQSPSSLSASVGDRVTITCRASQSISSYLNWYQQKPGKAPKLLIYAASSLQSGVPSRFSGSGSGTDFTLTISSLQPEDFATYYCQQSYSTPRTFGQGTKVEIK
notes: also called ATCC PTA-6143
B3: anti-HMG1 antibody G4 (antibody, V domains shown)
VH: EVQLLESGGGLVQPGGSLRLSCAASGFTFSWYDMTWVRQAPGKGLEWVSSISPSGGYTKYADSVKGRFTISRDNSKNTLYLQMNSLRAEDTAVYYCTTEFYDYLDVWGKGTTVTVSS
VL: DIQMTQSPGTLSLSPGEGATLSCRASQSVSSTYLAWYQQKPGQAPRLLIYEASKRATGTPARFSGSGSGTDFTLSISSLEPEDFAVYYCQHRHNWPPQWTFGQGTKVEVK
notes: also called ATCC PTA-6258
B4: anti-HMG1 antibody S2 (antibody, V domains shown)
VH: EVQLLESGGGLVQPGGSLRLSCAASGFTFSGYMMVWVRQAPGKGLEWVSRISPSGGQTGYADSVKGRFTISRDNSKNTLYLQMNSLRAEDTAVYYCAREEGGSYGAFDIWGQGTMVTVSS
VL: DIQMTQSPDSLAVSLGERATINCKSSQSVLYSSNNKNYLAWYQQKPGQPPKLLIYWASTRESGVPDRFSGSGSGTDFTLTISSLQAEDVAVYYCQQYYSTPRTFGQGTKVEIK
notes: also called ATCC PTA-6142

Experiments:
[1] = molecular target: T1, HMG1 B Box peptide amino acids 91-169; test: ELISA, wells coated with HMG1 B Box peptide 91-169 at 10 ug/ml, anti-human IgG-HRP, OD 450
Method: (§1) The plate was then blocked with 4% milk powder dissolved in PBS at 37° C. for 1 hour. The blocking solution was removed and replaced with human anti-HMG1 antibodies at various concentrations (see FIGS. 5A-B). […] HRP activity was detected with Sureblue HRP substrate (KPL). Plates were read at 450 nm using a Kinetic Microplate Reader (Molecular Devices). […] After washing and blocking with 1% BSA in PBS, the biotinylated peptides were individually added into the avidin coated wells and incubated for 30 min at room temperature. The serial diluted antibody G4, S16 and S6 at the initial concentration at 10 μg/ml were then transferred into the wells followed by adding mouse anti human IgG-HRP conjugate (Pierce). Detection was accomplished by adding 50 μl of tetramethylbenzidine (TMB) substrate (KPL) and the absorbance was read at […].

[2] = molecular target: T2, recombinant HMG1 purified from E. coli …; test: sandwich ELISA: antibody captured on anti-human IgG Fc, rHMG1 2 ug/ml in solution, mouse anti-HMGB1 and anti-mouse IgG-HRP, OD 450
Method: Sandwich ELISA (soluble HMG1): Immunoplates (EIA/RIA plate, High binding, Costar) were coated with anti human IgG Fc at 10 μg/ml in PBS (pH 7.2) and incubated at 4° C. overnight. The coating reagent was removed and the plates were rinsed briefly with PBS. The plates were then blocked with 4% milk for 1 hour at 37° C. and rinsed with PBS. The anti-HMG1 antibodies were diluted in 4% milk. For serial dilutions, the antibodies were used at a starting concentration of 20 μg/ml. The diluted anti-HMG1 antibodies were then added into plate and incubated for 1 hr at 37° C. The plate was then washed 10 times with PBST (PBS/0.1% tween 20) and incubate with antigen (HMGB1, 2 μg/ml; or 0.7 μg/ml for native HMGB1) in 4% milk and incubated at 37° C. for 1 h. The plate was then wash 10 times and incubated with mouse anti-HMGB1, 1 μg/ml in 4% milk at 37° C. for 1 h. The plate was washed 10 times and incubated with anti-mouse IgG-HRP at 1:1000 at 37° C. for 1 h. The plate was then washed and developed. HRP activity was detected with Sureblue HRP substrate (KPL). Plates were read at 450 nm using a Kinetic Microplate Reader (Molecular Devices).

HMGB1 peptide 166-183 = molecular target: T3, HMGB1 peptide 166-183; test: ELISA on biotinylated HMGB1 peptides captured on NeutrAvidin, antibody in serial dilution from 10 ug/ml, anti-human IgG-HRP, OD 450
Method: as §1

[3] = molecular target: T4, HMGB1 in joint lysates of adjuvant …; test: immunoprecipitation from AIA rat joint lysate, Western blot probed with biotinylated S16 (the method names G4, S6 and isotype control, the legend names S16 for lane 2)
Method: Immunoprecipitation and Western Blot: Anti-HMGB1 mAbs (G4 and S6) and isotype control were first biotinylated using EZ-Link Sulfo-NHS-LC-Biotin as instructed by the manufacturer (Pierce). After labeling, the mAb was tested for binding to HMGB1 by ELISA with unlabeled mAbs as controls. The biological samples, joint lysate (30 μl), was mixed with […] biotinylated G4, S6 or isotype control overnight at 4° C. in 300 μl IP buffer [containing 1×PBS, pH 7.2 (Invitrogen), 0.1% Tween 20, 0.5 M sodium chloride, 10 mM sodium butyrate, and a 1:100 dilution of Phosphatase Inhibitor Cocktail I (Sigma)]. For sepsis sera, Tween 20, sodium chloride, sodium butyrate, and Phosphatase Inhibitor Cocktail I were added to 500 μl sera with the same final concentration as IP buffer. Streptavidin Sepharose beads (GE Healthcare) were blocked in 4% BSA-PBS overnight at 4° C., then washed three times with PBS and resuspended in 1×PBS resulting in 50% slurry. The bead slurry (60 μl) was then added to the overnight mAb/sample mixture and mixed for 20 minutes at room temperature. The beads were washed once with PBS, five times with IP Buffer and then washed twice with PBS by spinning at 1000 g for two min. […] The bands were detected by LumiGlo substrate solution (KPL) after washing.

[4] = molecular target: T2, recombinant HMG1 purified from E. coli …; test: cell-based or functional assay
[5] = molecular target: T1, HMG1 B Box peptide amino acids 91-169; test: ELISA, wells coated with HMG1 B Box peptide 91-169 at 10 ug/ml
In short: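 Biotinylated peptides captured on avidin-coated wells (1% BSA block, 30 min, room temperature), then antibodies added in serial dilution from 10 μg/ml; for the coated-peptide format, plates blocked with 4% milk/PBS 1 h at 37 °C. Bound antibody detected with anti-human IgG-HRP and TMB, absorbance at 450 nm.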

Binder | binding result [1] | EC50 (read off the curve) [2] | binding result (HMGB1 peptide 166-183) | binding result [3] | IC50, inhibition of rHMG1 stimulated IL-1β release from human PBMC [4] | IC50, inhibition of rHMG1 stimulated IL-6 release from human PBMC [4] | IC50, inhibition of rHMG1 stimulated IL-12 release from human PBMC [4] | IC50, inhibition of rHMG1 stimulated TNF-α release from human PBMC [4] | binding result [5] | IC50, inhibition of HMG1 stimulated NO release from macrophages [4]
B1 | binds | ~0.08 µg/mL | binds | binds | 6.05 µg/mL | 560 pM | 1.24 µg/mL | 1.44 µg/mL |  | 
B2 |  |  |  |  | 0.0232 µg/mL | 174 pM |  | 0.0182 µg/mL | no binding (tested: 10 ug/ml (log 1.00)) | 4.15 µg/mL
B3 | binds |  |  |  | 5.01 µg/mL | 900 pM | 0.715 µg/mL | 5.51 µg/mL |  | 
B4 |  | ~0.08 µg/mL |  |  | 0.22 µg/mL | 163 pM |  | 0.0642 µg/mL | no binding (tested: 10 ug/ml (log 1.00)) | 
